Laboratory results from article PMC3655416 (Developmental cell, 2013).

Columns and labels:
[1] = biological target: Purified SAS-5 C-terminus (C. elegans) (UniProt Q20010); assay: SEC-MALS
[2] = biological target: the molecule itself; assay: SEC
[3] = biological target: T1, Full-length SAS-5, purified, on beads (C. elegans, UniProt Q20010 1-404); assay: pull-down
T1 sequence (looked up): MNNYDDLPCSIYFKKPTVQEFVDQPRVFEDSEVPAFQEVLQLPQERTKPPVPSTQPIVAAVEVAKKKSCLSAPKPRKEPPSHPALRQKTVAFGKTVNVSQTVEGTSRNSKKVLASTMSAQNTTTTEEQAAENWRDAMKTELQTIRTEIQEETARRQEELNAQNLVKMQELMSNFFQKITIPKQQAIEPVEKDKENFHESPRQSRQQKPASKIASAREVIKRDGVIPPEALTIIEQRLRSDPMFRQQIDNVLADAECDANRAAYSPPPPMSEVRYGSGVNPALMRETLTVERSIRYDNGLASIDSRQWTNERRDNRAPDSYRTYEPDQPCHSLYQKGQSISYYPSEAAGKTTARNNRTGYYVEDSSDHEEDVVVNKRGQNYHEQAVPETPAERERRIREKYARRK

Purified SAS-5 C-terminus (from UniProt Q20010 1-404) (domain or fragment)
stoichiometry N [1]: 2

B1: WT SAS-6^1-389, purified (domain or fragment, C. elegans, UniProt O62479 1-389, looked up)
chain: MTSKIALFDQTLIASLLQPLSLNQPDFKAYKTKVKLKISEQRNETSGEKELKFEISRSDDFEFLFSETLNNEKYQILARDHDLTVDFDAFPKVIIQHLLCKNIVKNLEEDGEVDARKKAGYHSIADPGKPTEINIILDAEKNFCSFELFSKTPISKGKIFSIKLHAVRGDHLISHLLKICSSQAVKLSTFYKSADELASLRQKCGDLEKQVEKLSGVKEEFEEMSEKFKELEDEVELVKEERENIRLLVEDKEDEVADLKQDTESLQKQLEENQEELEIVGNMLREEQGKVDQLQKRNVAHQKEIGKLRAELGTAQRNLEKADQLLKRNSQQQNQQSLDMRKLGELEADLKEKDSMVESLTETIGILRKELENEKLKAAENMDSFEKLS
binding result [2]: binds

B2: Full-length WT SAS-6, purified (natural protein, C. elegans, UniProt O62479 1-492, looked up)
chain: MTSKIALFDQTLIASLLQPLSLNQPDFKAYKTKVKLKISEQRNETSGEKELKFEISRSDDFEFLFSETLNNEKYQILARDHDLTVDFDAFPKVIIQHLLCKNIVKNLEEDGEVDARKKAGYHSIADPGKPTEINIILDAEKNFCSFELFSKTPISKGKIFSIKLHAVRGDHLISHLLKICSSQAVKLSTFYKSADELASLRQKCGDLEKQVEKLSGVKEEFEEMSEKFKELEDEVELVKEERENIRLLVEDKEDEVADLKQDTESLQKQLEENQEELEIVGNMLREEQGKVDQLQKRNVAHQKEIGKLRAELGTAQRNLEKADQLLKRNSQQQNQQSLDMRKLGELEADLKEKDSMVESLTETIGILRKELENEKLKAAENMDSFEKLSMENENLKEKIAHYRAQRFSPAPSGLPGLQTGLTNRLTPSFKPVLGPHTPYGANLNSRTPFRDNTTLNFQNSTIATPHAFRFNSQLIADETTGSSVTNTPPAQR
stoichiometry N [3]: 2 SAS-6:SAS-5
